Experimental data published in patent US11686724B2, “Compositions comprising gamma 9 delta 2 T-cell receptors and methods of use thereof to treat cancer” (Gadeta B.V., priority 2012, dated 2023).

Key:
[1] = tested on: Daudi; test: 51Cr-release assay of γ9δ2TCR-transduced T-cells against Daudi; type: cell-based; conditions: FIG. 1A, E:T 3:1, 5 h
Protocol: (§1) 51Chromium-release assay for cell-mediated cytotoxicity was previously described. Target cells were labeled overnight with 100 μCu 51Cr (150 μCu for primary cells) and incubated for 5 h with transduced T-cells in five effector-to-target ratios (E:T) between 30:1 and 0.3:1. Fold change was calculated when compared to reactivity of engineered T-cells expressing unmutated γ9δ2TCR. IFN-γ ELISpot was performed using anti-hulFN-γmAb1-D1K (I) and mAb7-B6-1 (II) (Mabtech-Hamburg, Germany) following the manufacturer's recommended procedure. Target and effector cells (E:T 3:1) were incubated for 24 h in the presence of pamidronate (Calbiochem, Germany) where indicated. IFNγ ELISA was performed using ELISA-ready-go! Kit (eBioscience) following manufacturer's instructions. Effector and target cells (E:T 1:1) were incubated for 24 h in the presence of pamidronate as indicated. Where specified, fold change was calculated when compared to reactivity of engineered T-cells expressing unmutated γ9δ2TCR.
^51Chromium-release assay for cell-mediated cytotoxicity was previously described (Kuball et al., 2004). […] After 4-6 h ^51Cr-release was measured in the supernatant. Fold change was calculated based on ^51Cr-release of γ9-G115wt/69-G115wt transduced T-cells normalized to 1; for side by side experiments based on γ9-3wt/δ9-3wt, γ9-5wt/δ9-5wt or γ9-G115wt/69-G115wt normalized to 1.

[2] = tested on: Daudi; test: IFNγ ELISA of γ9δ2TCR-transduced T-cells against Daudi in the presence of pamidronate; type: cell-based; set-up: IFNγ secretion (max.): unit not given here; conditions: CD4+ transduced T-cells, pamidronate titration; for IFNγ secretion (max.): FIG. 1B
Protocol: as §1
IFN-γELISA was performed using ELISA-ready-go! Kit (eBioscience) following manufacturers' instructions. Effector and target cells (E:T 1:1) were incubated for 24 h in the presence of pamidronate as indicated. Where specified, fold change was calculated based on IFN-γ secretion γ9-G115wt/6δ-G115wt transduced T-cells normalized to 1; for the side by side experiments based on γ9-3wt/δ9-3wt, γ9-5wt/69-5wt or γ9-G115wt/δ9-G115wt normalized to 1.

[3] = Allo-reactivity of γ9δ2TCR-transduced T-cells; type: cell-based
[4] = tested on: healthy CD34+ progenitor cells; test: IFNγ ELISpot against healthy CD34+ progenitor cells; type: cell-based; conditions: FIG. 5C
Protocol: as §1
Mabtech (Hamburg, Germany) following manufactures' recommended procedure (Besold et al., 2007). In all assays target and effector cells (E:T 3:1) were incubated for 24 h in the presence of pamidronate (Calbiochem, Germany) where indicated. […]

[5] = tested on: Daudi-luciferase; test: Daudi-luciferase xenograft in Rag2−/−γc−/− mice, adoptive transfer of engineered T-cells; type: in vivo
Protocol: (§2) To induce tumour xenografts, sublethal total body irradiated (2 Gy), 11-17 weeks old RAG-2−/−/yc−/−-BALB/C mice were injected i.v. with 0.5×10^6 Daudi-Luc cells (a kind gift from Genmab Utrecht, The Netherlands) or 5×10^6 RPM I8226/S-Luc cells (Anton Martens, Utrecht, The Netherlands) together with 10^7 γ9δ2TCR+ transduced T-cells. The RAG−2^−/^−yc^−/−-BALB/C mice were originally obtained from AMCAS b.v. (Amsterdam, the Netherlands). Mice were bred and housed in the specific pathogen-free (SPF) breeding unit of the Central Animal Facility of the University of Utrecht. All animal experiments were conducted according to Institutional Guidelines after acquiring permission from the local Ethical Committee for Animal Experimentation, and in accordance with current Dutch laws on Animal Experimentation. All mice developed tumours, mainly growing in the bone marrow visualized in vivo once a week by Biospace bioluminescent imaging. […] Bioluminescence images were acquired using a third generation cooled GaAs intensified charge-coupled device camera, controlled by the Photo Vision software and analyzed with M^3Vision software (all from Photon Imager; Biospace Laboratory). […] Bioluminescence images were acquired and analyzed with M3Vision software (Photon Imager, Biospace Laboratory). […]

[6] = tested on: RPMI8226/S-luciferase; test: RPMI8226/S-luciferase xenograft in Rag2−/−γc−/− mice, adoptive transfer of engineered T-cells; type: in vivo; conditions: day 35, n=7, one i.v. injection of 10^7 T-cells
Protocol: as §2

| Molecule | reduced ability to lyse tumour cells vs control γ9-G115wt/δ2-G115wt [1] [%] | IFNγ secretion (max.) [2] | allo-reactivity compared to mock-transduced cells [3] | recognition of CD34+ progenitor cells [4] | IFNγ production (max.) ([2]; FIG. 1D) [pg/mL] | tumour outgrowth by bioluminescence imaging ([5]; Daudi, day 42, n=4, one i.v. injection of 10^7 T-cells) [counts/min] | protection against tumour growth (BLI) ([5]; one T-cell infusion, FIGS. 6A and 6B (Daudi and RPMI8226/S)) | tumour outgrowth by bioluminescence imaging [6] [counts/min] |
| --- | --- | --- | --- | --- | --- | --- | --- | --- |
| γ9-cl3/δ2-cl3: wildtype γ9δ2TCR of T-cell clone 3 (SEQ ID 8 and 10) (protein, listed as Homo sapiens) chain 1: MVSLLHASTLAVLGALCVYGAGHLEQPQISSTKTLSKTARLECVVSGITISATSVYWYRERPGEVIQFLVSISYDGTVRKESGIPSGKFEVDRIPETSTSTLTIHNVEKQDIATYYCALWEEELGKKIKVFGPGTKLIITDKQLDADVSPKPTIFLPSIAETKLQKAGTYLCLLEKFFPDVIKIHWEEKKSNTILGSQEGNTMKTNDTYMKFSWLTVPEKSLDKEHRCIVRHENNKNGVDQEIIFPPIKTDVITMDPKDNCSKDANDTLLLQLTNTSAYYMYLLLLLKSVVYFAIITCCLLRRTAFCCNGEKS chain 2: MERISSLIHLSLFWAGVMSAIELVPEHQTVPVSIGVPATLRCSMKGEAIGNYYINWYRKTQGNTMTFIYREKDIYGPGFKDNFQGDIDIAKNLAVLKILAPSERDEGSYYCACDLLGYTDKLIFGKGTRVTVEPRSQPHTKPSVFVMKNGTNVACLVKEFYPKDIRINLVSSKKITEFDPAIVISPSGKYNAVKLGKYEDSNSVTCSVQHDNKTVHSTDFEVKTDSTDHVKPKETENTKQPSKSCHKPKAIVHTEKVNMMSLTVLGLRMLFAKTVAVNFLLTAKLFFL | 50 | 600 |  |  |  |  |  |  |
| γ9-G115/δ2-G115: reference γ9δ2TCR of clone G115, γ9 chain SEQ ID NO.1 and δ2 chain SEQ ID NO.2, control (protein, listed as Homo sapiens) chain 1: MVSLLHASTLAVLGALCVYGAGHLEQPQISSTKTLSKTARLECVVSGITISATSVYWYRERPGEVIQFLVSISYDGTVRKESGIPSGKFEVDRIPETSTSTLTIHNVEKQDIATYYCALWEAQQELGKKIKVFGPGTKLIITDKQLDADVSPKPTIFLPSIAETKLQKAGTYLCLLEKFFPDVIKIHWEEKKSNTILGSQEGNTMKTNDTYMKFSWLTVPEKSLDKEHRCIVRHENNKNGVDQEIIFPPIKTDVITMDPKDNCSKDANDTLLLQLTNTSAYYMYLLLLLKSVVYFAIITCCLLRRTAFCCNGEKS chain 2: MERISSLIHLSLFWAGVMSAIELVPEHQTVPVSIGVPATLRCSMKGEAIGNYYINWYRKTQGNTMTFIYREKDIYGPGFKDNFQGDIDIAKNLAVLKILAPSERDEGSYYCACDTLGMGGEYTDKLIFGKGTRVTVEPRSQPHTKPSVFVMKNGTNVACLVKEFYPKDIRINLVSSKKITEFDPAIVISPSGKYNAVKLGKYEDSNSVTCSVQHDNKTVHSTDFEVKTDSTDHVKPKETENTKQPSKSCHKPKAIVHTEKVNMMSLTVLGLRMLFAKTVAVNFLLTAKLFFL |  | 800 | nearly abolished | not recognized | 800 | 180.000 | loss of protection | 210.000 |
